Each block holds one binder with its values, some of them ahead of it.
Target: human prostate-specific membrane antigen (PSMA) (human, UniProt Q04609 1-750)
Assay: cell-based or functional assay

Sequence of human prostate-specific membrane antigen (PSMA) (Q04609 whole entry): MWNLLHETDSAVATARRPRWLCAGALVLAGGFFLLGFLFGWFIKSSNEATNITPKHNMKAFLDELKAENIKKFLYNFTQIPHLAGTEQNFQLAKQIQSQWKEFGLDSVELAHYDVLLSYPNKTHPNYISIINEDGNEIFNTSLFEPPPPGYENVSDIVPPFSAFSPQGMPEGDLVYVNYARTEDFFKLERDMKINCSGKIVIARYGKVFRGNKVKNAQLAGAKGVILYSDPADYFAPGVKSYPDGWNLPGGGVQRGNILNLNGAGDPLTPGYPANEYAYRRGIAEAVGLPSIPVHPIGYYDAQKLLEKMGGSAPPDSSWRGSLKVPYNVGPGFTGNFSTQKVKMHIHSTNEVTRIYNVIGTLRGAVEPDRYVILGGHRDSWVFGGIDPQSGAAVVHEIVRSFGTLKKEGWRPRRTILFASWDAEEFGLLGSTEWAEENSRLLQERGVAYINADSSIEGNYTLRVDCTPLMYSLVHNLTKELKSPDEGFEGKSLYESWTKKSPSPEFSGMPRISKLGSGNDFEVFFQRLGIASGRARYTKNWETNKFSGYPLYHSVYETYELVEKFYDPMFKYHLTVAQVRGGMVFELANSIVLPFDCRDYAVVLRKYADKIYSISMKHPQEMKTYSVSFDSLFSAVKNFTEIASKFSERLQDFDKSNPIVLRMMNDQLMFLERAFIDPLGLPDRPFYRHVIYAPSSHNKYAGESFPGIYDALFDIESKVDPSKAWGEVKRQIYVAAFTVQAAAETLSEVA

cytokine levels of 19-28z/iCAR T cells on CD19+PSMA+ off-target versus CD19+ target AAPCs, inhibition: 30%
B1: BTLA iCAR-P (PSMA-specific inhibitory chimeric antigen receptor with BTLA intracellular domain) (receptor)
chain: EVQLQQSGPELVKPGTSVRISCKTSGYTFTEYTIHWVKQSHGKSLEWIGNINPNNGGTTYNQKFEDKATLTVDKSSSTAYMELRSLTSEDSAVYYCAAGWNFDYWGQGTTVTVSSGGGGSGGGGSGGGGSDIVMTQSHKFMSTSVGDRVSIICKASQDVGTAVDWYQQKPGQSPKLLIYWASTRHTGVPDRFTGSGSGTDFTLTITNVQSEDLADYFCQQYNSYPLTFGAGTMLDLKRAAADVKSASERPSKDEMASRPWLLYSLLPLGGLPLLITTCFCLFCCLRRHQGKQNELSDTAGREINLVDAHLKSEQTEASTRQNSQVLLSETGIYDNDPDLCFRMQEGSEVYSNPCLEENKPGIVYASLNHSVIGPNSRLARNVKEAPTEYASICVRS

cytokine levels of 19-28z/iCAR T cells on CD19+PSMA+ off-target versus CD19+ target AAPCs, inhibition: 30%
B2: LAG-3 iCAR-P (PSMA-specific inhibitory chimeric antigen receptor with LAG-3 intracellular domain) (receptor)
chain: EVQLQQSGPELVKPGTSVRISCKTSGYTFTEYTIHWVKQSHGKSLEWIGNINPNNGGTTYNQKFEDKATLTVDKSSSTAYMELRSLTSEDSAVYYCAAGWNFDYWGQGTTVTVSSGGGGSGGGGSGGGGSDIVMTQSHKFMSTSVGDRVSIICKASQDVGTAVDWYQQKPGQSPKLLIYWASTRHTGVPDRFTGSGSGTDFTLTITNVQSEDLADYFCQQYNSYPLTFGAGTMLDLKRAAALGAAVYFTELSSPGAQRSGRAPGALPAGHLLLFLILGVLSLLLLVTGAFGFHLWRRQWRPRRFSALEQGIHPPQAQSKIEELEQEPEPEPEPEPEPEPEPEPEQL

cytokine levels of 19-28z/iCAR T cells on CD19+PSMA+ off-target versus CD19+ target AAPCs, inhibition: 30%
B3: 2B4 iCAR-P (PSMA-specific inhibitory chimeric antigen receptor with 2B4 intracellular domain) (receptor)
chain: EVQLQQSGPELVKPGTSVRISCKTSGYTFTEYTIHWVKQSHGKSLEWIGNINPNNGGTTYNQKFEDKATLTVDKSSSTAYMELRSLTSEDSAVYYCAAGWNFDYWGQGTTVTVSSGGGGSGGGGSGGGGSDIVMTQSHKFMSTSVGDRVSIICKASQDVGTAVDWYQQKPGQSPKLLIYWASTRHTGVPDRFTGSGSGTDFTLTITNVQSEDLADYFCQQYNSYPLTFGAGTMLDLKRAAAQDCQNAHQEFRFWPFLVIIVILSALFLGTLACFCVWRRKRKEKQSETSPKEFLTIYEDVKDLKTRRNHEQEQTFPGGGSTIYSMIQSQSSAPTSQEPAYTLYSLIQPSRKSGSRKRNHSPSFNSTIYEVIGKSQPKAQNPARLSRKELENFDVYS

— patent publication US20150376296A1 (Memorial Sloan Kettering, published 2015)
